Assay results published in US20210309747A1.

Target: human PD-L1 on Raji cells (human) (UniProt Q9NZQ7)
Assay: flow cytometry blocking assay on Raji-PDL1 cells; blocked ligand: biotinylated Avi- and His-tag human PD1 protein at 3 ug/mL, Streptavidin-PE, MFI; isotype control, the fitted curve falls only from MFI about 320 to about 240

Chain of human PD-L1 on Raji cells (human) (Q9NZQ7 19-290): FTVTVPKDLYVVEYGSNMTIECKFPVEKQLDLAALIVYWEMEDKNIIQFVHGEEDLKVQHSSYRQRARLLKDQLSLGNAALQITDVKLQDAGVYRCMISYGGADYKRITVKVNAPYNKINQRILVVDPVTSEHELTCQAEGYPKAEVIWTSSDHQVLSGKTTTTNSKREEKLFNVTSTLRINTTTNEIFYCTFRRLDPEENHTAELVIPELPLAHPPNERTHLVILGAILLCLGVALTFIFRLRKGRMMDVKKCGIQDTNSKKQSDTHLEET

Substance IgG (antibody) has an EC50 of 0.45 nM.
